# Data from US20140017242A1, “ANTI-BRADYKININ B2 RECEPTOR (BKB2R) MONOCLONAL ANTIBODY” (Diamedica, Inc., priority 2010, published 2014).
# Where a chain is given by its changes, count along the chain named. Where no end group is shown, it is not given here.
# T1: human BKB2R-derived epitope peptide (SEQ ID NO:73), PEG-biotin (human, also: PEG-biotin, site not given here)
# T1 construct: also called immunogenic human BKB2R peptide fragment
# T1 peptide: KEYSDEGHNVTAC
# B1: L1/HC: humanized light chain L1 (SEQ ID NO:8) with HC, the mouse original 5F12G1 VH (antibody)
# heavy: EVKLEESGGGLVQPGGSMKLSCVVSGFTFSDYWMSWVRHSPEMGLEWVAEIRLKSDNYATHYAESVKGRFTISRDDSKSRLYLQINSLRGEDTGIYYCTRDYYAMEYWGQGTSVTVSS
# light: DIVMTQSPLSLPVTPGEPASISCRSSQTIVHSNGKTYLEWYLQKPGQSPQLLIYKVSNRFSGVPDRFSGSGSGTDFTLKISRVEAEDVGVYYCFQASHVPYTFGQGTKLEIKRTVAAPSVFIFPPSDEQLKSGTASVVCLLNNFYPREAKVQWKVDNALQSGNSQESVTEQDSKDSTYSLSSTLTLSKADYEKHKVYACEVTHQGLSSPVTKSFNRGEC
# modifications: left off: a dimerising Fc or GST
# B2: L2/HC: humanized light chain L2 (SEQ ID NO:9) with HC, the mouse original 5F12G1 VH (antibody)
# heavy: B1 heavy
# light: B1 light with D75E
# modifications: left off: a dimerising Fc or GST
# B3: L1/H2: humanized anti-BKB2R mAb, light chain L1 (SEQ ID NO:8), heavy chain H2 (SEQ ID NO:4) (antibody, V domains shown)
# VH: EVQLVESGGGLVQPGGSLRLSCVASGFTFSDYWMSWVRQAPGKGLEWVAEIRLKSDNYATHYAESVKGRFTISRDDAKNSLYLQMNSLRAEDTAVYYCTRDYYAMEYWGQGTLVTVSS
# VL: DIVMTQSPLSLPVTPGEPASISCRSSQTIVHSNGKTYLEWYLQKPGQSPQLLIYKVSNRFSGVPDRFSGSGSGTDFTLKISRVEAEDVGVYYCFQASHVPYTFGQGTKLEIK
# modifications: Humanized H2 Heavy Chain Variable Region VH; Humanized L1 Light Chain Variable Region VL
# B4: L1/H1: humanized anti-BKB2R mAb, light chain L1 (SEQ ID NO:8), heavy chain H1 (SEQ ID NO:3), human IgG2/kappa (antibody, V domains shown)
# VH: B3 VH with V23A, D76N
# VL: B3 VL
# modifications: Humanized H1 Heavy Chain Variable Region VH; Humanized L1 Light Chain Variable Region VL
# B5: L2/H1: humanized anti-BKB2R mAb, light chain L2 (SEQ ID NO:9), heavy chain H1 (SEQ ID NO:3) (antibody, V domains shown)
# VH: B3 VH with V23A, D76N
# VL: B3 VL with D75E
# modifications: Humanized H1 Heavy Chain Variable Region VH; Humanized L2 Light Chain Variable Region VL
# B6: H38/L38: humanized anti-BKB2R mAb, heavy chain H38 (SEQ ID NO:6), light chain L38 (SEQ ID NO:11) (antibody, V domains shown)
# VH: B3 VH with V5L, R19K, V23A, A24V, A49S, E64D, A77S, S80T
# VL: B3 VL with S7T, P15S, E39D, F60A, Q105G, L109V
# modifications: Humanized H38 Heavy Chain Variable Region VH; Humanized L38 Light Chain Variable Region VL
# B7: H39/L37: humanized anti-BKB2R mAb, heavy chain H39 (SEQ ID NO:7), light chain L37 (SEQ ID NO:10) (antibody, V domains shown)
# VH: EVKLVESGGGLVQPGGSLRLSCAVSGFTFSDYWMDWVRQAPGKGLEWVAEIRLKSDNYATHYAASVKGRFTISRDDSKSRLYLQMNSLKTEDTAVYYCTRDYYAMEYWGQGTTVTVSS
# VL: B3 VL with S7T, P12S, E17Q, R24K, E39Y, N58S
# modifications: Humanized H39 Heavy Chain Variable Region VH; Humanized L37 Light Chain Variable Region VL
# B8: humanized anti-BKB2R antibody H37/L37 (antibody, human IgG2, kappa, V domains shown)
# VH: B7 VH with K3Q, V24A, A49G, S79N, R80S
# VL: DIVMTQTPLSLSVTPGQPASISCKSSQTIVHSNGKTYLYWYLQKPGQSPQLLIYKVSSRFSGVPDRFSGSGSGTDFTLKISRVEAEDVGVYYCFQASHVPYTFGQGTKLEIKR
# B9: humanized anti-BKB2R antibody H38/L38 (antibody, human IgG2, kappa, V domains shown)
# VH: B3 VH with V5L, R19K, V23A, A24V, A49S, E64D, A77S, S80T
# VL: B8 VL with S12P, P15S, Q17E, K24R, Y39D, S58N, F60A, Q105G, L109V
# B10: humanized anti-BKB2R antibody H39/L38 (antibody, human IgG2, kappa, V domains shown)
# VH: B7 VH
# VL: B8 VL with S12P, P15S, Q17E, K24R, Y39D, S58N, F60A, Q105G, L109V
# B11: humanized anti-BKB2R antibody H38/L39 (antibody, human IgG2, kappa, V domains shown)
# VH: B3 VH with V5L, R19K, V23A, A24V, A49S, E64D, A77S, S80T
# VL: B8 VL with I2V, Y39E, S58N
# B12: humanized anti-BKB2R antibody H39/L37 (antibody, human IgG2, kappa, V domains shown)
# VH: B7 VH
# VL: B8 VL
# B13: humanized anti-BKB2R antibody H37/L38 (antibody, human IgG2, kappa, V domains shown)
# VH: B7 VH with K3Q, V24A, A49G, S79N, R80S
# VL: B8 VL with S12P, P15S, Q17E, K24R, Y39D, S58N, F60A, Q105G, L109V
# B14: humanized anti-BKB2R antibody H39/L39 (antibody, human IgG2, kappa, V domains shown)
# VH: B7 VH
# VL: B8 VL with I2V, Y39E, S58N
# B15: humanized anti-BKB2R antibody H37/L39 (antibody, human IgG2, kappa, V domains shown)
# VH: B7 VH with K3Q, V24A, A49G, S79N, R80S
# VL: B8 VL with I2V, Y39E, S58N
# B16: humanized anti-BKB2R antibody H38/L37 (antibody, human IgG2, kappa, V domains shown)
# VH: B3 VH with V5L, R19K, V23A, A24V, A49S, E64D, A77S, S80T
# VL: B8 VL
# Molecular target: T2, human BKB2R-derived epitope peptide, SE ID NO:73 (Homo sapiens, UniProt P30411)
# T2 construct: purchased Biosyn, Lewisville, Tex
# Test: ForteBio Octet binding kinetics to the BKB2R epitope peptide
# Conditions: Conc. 250 nM
# Description: Proteins corresponding to all combinations of humanized or chimeric (5F12G1 VH and VL on human IgG2 backbone) antibodies were tested for binding to the human BKB2R-derived epitope peptide, SE ID NO:73.
# A ForteBio (Menlo Park, Calif., USA) Octet® platform was used to analyze the binding affinities and binding characteristics of the humanized monoclonal antibodies to the peptide epitope (SEQ ID NO:73) and compared to the original mouse monoclonal 5F12G1. This platform employed label-free technology for measuring biomolecular interactions by optical analysis of the interference pattern of white light reflected from two surfaces: a layer of immobilized protein on the biosensor tip, and an internal reference layer. Any change in the number of molecules bound to the biosensor tip caused a shift in the interference pattern that was measured in real-time. Binding specificity, and rates of association and dissociation were monitored.
# (§1) For the Octet study, antibodies were analyzed by kinetic titration of the antibodies. Antibodies were prepared in kinetic buffer (0.001 M phosphate buffered saline (NaCl 0.0138 M; KCl-0.00027 M); pH 7.4, at 25° C., 0.1 mg/ml BSA, 0.002% Tween and 0.005% Sodium Azide) followed by 1:2 serial dilutions.
# (§2) Sensor Prep: Streptavidin biosensors (FortéBio Inc, Menlo Park, Calif.) were coated by incubation in a solution containing a peptide ([…]-PEG-biotin) (Biosyn, Lewisville, Tex.) at 50 μg/ml (300 seconds/1000 rpm shaking). 96 well half-volume plates were used for testing. 90 μl of sample was plated per well. Sensors were allowed to equilibrate to baseline in kinetic buffer (60 seconds/1000 rpm). The sensors were then placed into the various antibody dilutions to allow binding (association) to the probe for 500 seconds/1000 rpm, and measurements were taken. The sensors were then moved into kinetic buffer without antibody for dissociation (500 seconds/1000 rpm), and measurements were taken. Octet system software calculated kinetic constants for on rate/off rate/affinity.
# […] […] Each concentration was tested twice. The HC and LC represented the mouse original 5F12G1 VH and VL sequences.
kdis [s⁻¹],kon [M⁻¹ s⁻¹],Molecule
0.728,239000,B1
0.732,2.17e+06,B2
0.719,350000,B3
0.00438,216000,B5

Molecule,kdis [s⁻¹],kon [M⁻¹ s⁻¹]
B4,0.701,1.59e+06

# Same assay, conditions: Conc. 500 nM
kdis [s⁻¹],kon [M⁻¹ s⁻¹],Molecule
2.16,543000,B1
0.655,145000,B2
0.976,2.43e+06,B3
0.00507,1.21e+06,B5

Molecule,kdis [s⁻¹],kon [M⁻¹ s⁻¹]
B4,0.942,404000
B6,0.00763,3.06e+06
B7,0.0288,1.23e+06

# Same assay, conditions: Octet, epitope peptide
row,Molecule,binding compared with the original mouse monoclonal antibody
1,B6,stronger binding (lower KD)
2,B7,stronger binding (lower KD)

# Molecular target: T1, human BKB2R-derived epitope peptide …
# Test: BLI (Octet), peptide-PEG-biotin on streptavidin sensor, antibody 500 nM
# Conditions: not given
# Description: as §1, §2
# For test humanized monoclonal antibodies, the highest concentration used was 500 nM followed by 1:2 dilutions. Each concentration was tested twice. The HC and LC represented the mouse original 5F12G1 VH and VL sequences.
Kd [µM],Max Response,koff [s⁻¹],kon [M⁻¹ s⁻¹],Molecule
0.758,0.12,1.18,1.55e+06,B8
0.00249,0.132,0.00763,3.06e+06,B9
0.761,0.143,4.9,6.44e+06,B10
0.0932,0.0681,106,1.14e+09,B11
0.0234,0.119,0.0288,1.23e+06,B12
0.22,0.173,2.08,9.47e+06,B13
1.73,0.0915,1.26,729000,B14
1.23,0.121,1.98,1.11e+06,B15
3.11,0.577,29.4,9.44e+06,B16
